± gives the uncertainty stated by the source.
assay: abundance fitness (aPCA) (normalised: wild type 0, dead -1); higher = more abundant; growth selection in yeast, the domain comes from the species named; details: Homo sapiens

“NEDD4-like E3 ubiquitin-protein ligase WWP2 K484D, O00308” and “NEDD4-like E3 ubiquitin-protein ligase WWP2 K484E, O00308” are within error of each other in abundance fitness: -0.028 ± 0.073 for the first, -0.037 ± 0.061 for the second.

“NEDD4-like E3 ubiquitin-protein ligase WWP2 K484F, O00308” and “NEDD4-like E3 ubiquitin-protein ligase WWP2 K484H, O00308” are within error of each other in abundance fitness: -0.24 ± 0.073 for the first, -0.192 ± 0.081 for the second.

“NEDD4-like E3 ubiquitin-protein ligase WWP2 K484I, O00308” and “NEDD4-like E3 ubiquitin-protein ligase WWP2 K484L, O00308” are within error of each other in abundance fitness: -0.157 ± 0.064 for the first, -0.064 ± 0.03 for the second.

“NEDD4-like E3 ubiquitin-protein ligase WWP2 K484M, O00308” and “NEDD4-like E3 ubiquitin-protein ligase WWP2 K484N, O00308” are within error of each other in abundance fitness: 0.044 ± 0.058 for the first, -0.056 ± 0.053 for the second.

“NEDD4-like E3 ubiquitin-protein ligase WWP2 K484P, O00308” and “NEDD4-like E3 ubiquitin-protein ligase WWP2 K484Q, O00308” are within error of each other in abundance fitness: -0.05 ± 0.034 for the first, -0.025 ± 0.068 for the second.

“NEDD4-like E3 ubiquitin-protein ligase WWP2 K484R, O00308” and “NEDD4-like E3 ubiquitin-protein ligase WWP2 K484S, O00308” are within error of each other in abundance fitness: -0.062 ± 0.038 for the first, -0.007 ± 0.037 for the second.

Going from “NEDD4-like E3 ubiquitin-protein ligase WWP2 K484T, O00308” to “NEDD4-like E3 ubiquitin-protein ligase WWP2 K484V, O00308”, the abundance fitness falls from -0.025 ± 0.039 to -0.143 ± 0.046.

“NEDD4-like E3 ubiquitin-protein ligase WWP2 K484W, O00308” and “NEDD4-like E3 ubiquitin-protein ligase WWP2 K484Y, O00308” are within error of each other in abundance fitness: -0.101 ± 0.052 for the first, -0.071 ± 0.029 for the second.

Going from “NEDD4-like E3 ubiquitin-protein ligase WWP2 L446A, O00308” to “NEDD4-like E3 ubiquitin-protein ligase WWP2 L446C, O00308”, the abundance fitness rises from -0.4 ± 0.037 to -0.065 ± 0.054.

“NEDD4-like E3 ubiquitin-protein ligase WWP2 L446D, O00308” and “NEDD4-like E3 ubiquitin-protein ligase WWP2 L446E, O00308” are within error of each other in abundance fitness: -0.556 ± 0.048 for the first, -0.576 ± 0.051 for the second.

Compared with “NEDD4-like E3 ubiquitin-protein ligase WWP2 L446F, O00308”, “NEDD4-like E3 ubiquitin-protein ligase WWP2 L446H, O00308” is lower in abundance fitness: -0.011 ± 0.07 for the first, -0.641 ± 0.12 for the second.

Going from “NEDD4-like E3 ubiquitin-protein ligase WWP2 L446I, O00308” to “NEDD4-like E3 ubiquitin-protein ligase WWP2 L446K, O00308”, the abundance fitness falls from -0.214 ± 0.081 to -0.688 ± 0.094.

Compared with “NEDD4-like E3 ubiquitin-protein ligase WWP2 L446M, O00308”, “NEDD4-like E3 ubiquitin-protein ligase WWP2 L446P, O00308” is lower in abundance fitness: -0.05 ± 0.03 for the first, -0.394 ± 0.083 for the second.

Compared with “NEDD4-like E3 ubiquitin-protein ligase WWP2 L446Q, O00308”, “NEDD4-like E3 ubiquitin-protein ligase WWP2 L446R, O00308” is lower in abundance fitness: -0.491 ± 0.058 for the first, -0.901 ± 0.054 for the second.

Compared with “NEDD4-like E3 ubiquitin-protein ligase WWP2 L446S, O00308”, “NEDD4-like E3 ubiquitin-protein ligase WWP2 L446T, O00308” is higher in abundance fitness: -0.601 ± 0.054 for the first, -0.384 ± 0.071 for the second.

Compared with “NEDD4-like E3 ubiquitin-protein ligase WWP2 L446V, O00308”, “NEDD4-like E3 ubiquitin-protein ligase WWP2 L446W, O00308” is lower in abundance fitness: -0.29 ± 0.052 for the first, -0.435 ± 0.065 for the second.

“NEDD4-like E3 ubiquitin-protein ligase WWP2 L446Y, O00308” and “NEDD4-like E3 ubiquitin-protein ligase WWP2 M440A, O00308” are within error of each other in abundance fitness: -0.072 ± 0.07 for the first, -0.137 ± 0.1 for the second.

“NEDD4-like E3 ubiquitin-protein ligase WWP2 M440C, O00308” and “NEDD4-like E3 ubiquitin-protein ligase WWP2 M440D, O00308” are within error of each other in abundance fitness: -0.491 ± 0.32 for the first, -0.138 ± 0.29 for the second.

“NEDD4-like E3 ubiquitin-protein ligase WWP2 M440E, O00308” and “NEDD4-like E3 ubiquitin-protein ligase WWP2 M440G, O00308” are within error of each other in abundance fitness: -0.085 ± 0.11 for the first, -0.284 ± 0.11 for the second.

Compared with “NEDD4-like E3 ubiquitin-protein ligase WWP2 M440I, O00308”, “NEDD4-like E3 ubiquitin-protein ligase WWP2 M440K, O00308” is higher in abundance fitness: -0.021 ± 0.076 for the first, 0.4 ± 0.12 for the second.

First: NEDD4-like E3 ubiquitin-protein ligase WWP2 M440L, O00308
Second: NEDD4-like E3 ubiquitin-protein ligase WWP2 M440N, O00308
The abundance fitness of the first is lower: -0.065 ± 0.1 for the first, 0.283 ± 0.12 for the second.

Going from “NEDD4-like E3 ubiquitin-protein ligase WWP2 M440Q, O00308” to “NEDD4-like E3 ubiquitin-protein ligase WWP2 M440R, O00308”, the abundance fitness falls from 0.206 ± 0.11 to -0.103 ± 0.087.

“NEDD4-like E3 ubiquitin-protein ligase WWP2 M440S, O00308” and “NEDD4-like E3 ubiquitin-protein ligase WWP2 M440T, O00308” are within error of each other in abundance fitness: -0.102 ± 0.086 for the first, -0.117 ± 0.033 for the second.

Going from “NEDD4-like E3 ubiquitin-protein ligase WWP2 M440V, O00308” to “NEDD4-like E3 ubiquitin-protein ligase WWP2 M440W, O00308”, the abundance fitness falls from -0.114 ± 0.079 to -0.831 ± 0.3.

“NEDD4-like E3 ubiquitin-protein ligase WWP2 M452A, O00308” and “NEDD4-like E3 ubiquitin-protein ligase WWP2 M452C, O00308” are within error of each other in abundance fitness: -0.01 ± 0.048 for the first, 0.009 ± 0.055 for the second.

Compared with “NEDD4-like E3 ubiquitin-protein ligase WWP2 M452D, O00308”, “NEDD4-like E3 ubiquitin-protein ligase WWP2 M452E, O00308” is higher in abundance fitness: -0.12 ± 0.056 for the first, 0.046 ± 0.046 for the second.

“NEDD4-like E3 ubiquitin-protein ligase WWP2 M452F, O00308” and “NEDD4-like E3 ubiquitin-protein ligase WWP2 M452G, O00308” are within error of each other in abundance fitness: -0.097 ± 0.05 for the first, -0.197 ± 0.051 for the second.

Going from “NEDD4-like E3 ubiquitin-protein ligase WWP2 M452H, O00308” to “NEDD4-like E3 ubiquitin-protein ligase WWP2 M452I, O00308”, the abundance fitness rises from -0.258 ± 0.066 to -0.001 ± 0.053.

First: NEDD4-like E3 ubiquitin-protein ligase WWP2 M452K, O00308
Second: NEDD4-like E3 ubiquitin-protein ligase WWP2 M452L, O00308
The abundance fitness of the first is lower: -0.36 ± 0.11 for the first, -0.108 ± 0.042 for the second.

First: NEDD4-like E3 ubiquitin-protein ligase WWP2 M452P, O00308
Second: NEDD4-like E3 ubiquitin-protein ligase WWP2 M452Q, O00308
The abundance fitness of the first is lower: -0.337 ± 0.054 for the first, -0.107 ± 0.063 for the second.

“NEDD4-like E3 ubiquitin-protein ligase WWP2 M452R, O00308” and “NEDD4-like E3 ubiquitin-protein ligase WWP2 M452S, O00308” are within error of each other in abundance fitness: -0.103 ± 0.035 for the first, -0.069 ± 0.04 for the second.

“NEDD4-like E3 ubiquitin-protein ligase WWP2 M452T, O00308” and “NEDD4-like E3 ubiquitin-protein ligase WWP2 M452V, O00308” are within error of each other in abundance fitness: -0.017 ± 0.033 for the first, 0.034 ± 0.038 for the second.

“NEDD4-like E3 ubiquitin-protein ligase WWP2 M452W, O00308” and “NEDD4-like E3 ubiquitin-protein ligase WWP2 M452Y, O00308” are within error of each other in abundance fitness: -0.194 ± 0.057 for the first, -0.159 ± 0.049 for the second.

“NEDD4-like E3 ubiquitin-protein ligase WWP2 N466A, O00308” and “NEDD4-like E3 ubiquitin-protein ligase WWP2 N466C, O00308” are within error of each other in abundance fitness: -0.242 ± 0.034 for the first, -0.169 ± 0.048 for the second.

Compared with “NEDD4-like E3 ubiquitin-protein ligase WWP2 N466D, O00308”, “NEDD4-like E3 ubiquitin-protein ligase WWP2 N466E, O00308” is higher in abundance fitness: -0.377 ± 0.064 for the first, -0.238 ± 0.069 for the second.

“NEDD4-like E3 ubiquitin-protein ligase WWP2 N466F, O00308” and “NEDD4-like E3 ubiquitin-protein ligase WWP2 N466G, O00308” are within error of each other in abundance fitness: -0.145 ± 0.071 for the first, -0.184 ± 0.051 for the second.

“NEDD4-like E3 ubiquitin-protein ligase WWP2 N466H, O00308” and “NEDD4-like E3 ubiquitin-protein ligase WWP2 N466I, O00308” are within error of each other in abundance fitness: -0.169 ± 0.075 for the first, -0.261 ± 0.079 for the second.

“NEDD4-like E3 ubiquitin-protein ligase WWP2 N466K, O00308” and “NEDD4-like E3 ubiquitin-protein ligase WWP2 N466M, O00308” are within error of each other in abundance fitness: -0.202 ± 0.07 for the first, -0.188 ± 0.07 for the second.

Going from “NEDD4-like E3 ubiquitin-protein ligase WWP2 N466P, O00308” to “NEDD4-like E3 ubiquitin-protein ligase WWP2 N466Q, O00308”, the abundance fitness rises from -0.636 ± 0.075 to -0.06 ± 0.068.

“NEDD4-like E3 ubiquitin-protein ligase WWP2 N466R, O00308” and “NEDD4-like E3 ubiquitin-protein ligase WWP2 N466S, O00308” are within error of each other in abundance fitness: -0.164 ± 0.043 for the first, -0.175 ± 0.049 for the second.

“NEDD4-like E3 ubiquitin-protein ligase WWP2 N466T, O00308” and “NEDD4-like E3 ubiquitin-protein ligase WWP2 N466V, O00308” are within error of each other in abundance fitness: -0.255 ± 0.063 for the first, -0.212 ± 0.048 for the second.

Going from “NEDD4-like E3 ubiquitin-protein ligase WWP2 N466W, O00308” to “NEDD4-like E3 ubiquitin-protein ligase WWP2 N466Y, O00308”, the abundance fitness rises from -0.513 ± 0.047 to -0.366 ± 0.085.

Compared with “NEDD4-like E3 ubiquitin-protein ligase WWP2 P444A, O00308”, “NEDD4-like E3 ubiquitin-protein ligase WWP2 P444D, O00308” is higher in abundance fitness: -0.089 ± 0.059 for the first, 0.148 ± 0.061 for the second.

“NEDD4-like E3 ubiquitin-protein ligase WWP2 P444F, O00308” and “NEDD4-like E3 ubiquitin-protein ligase WWP2 P444G, O00308” are within error of each other in abundance fitness: 0.098 ± 0.067 for the first, 0.089 ± 0.049 for the second.
